Data published in article PMC3032569 (The Biochemical journal, 2009).
Where no end group is shown, it is not given here.

Biological target: T1, E. coli TonB C-terminal domain (TonB CTD, residues 103-239) (E. coli, UniProt P02929 103-239)
T1 sequence (looked up): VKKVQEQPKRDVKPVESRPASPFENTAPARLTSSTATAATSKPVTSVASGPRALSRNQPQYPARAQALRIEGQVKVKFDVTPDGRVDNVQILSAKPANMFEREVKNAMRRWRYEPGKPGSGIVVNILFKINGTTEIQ
Test: NMR titration

**Q.** Does Ac-EDTITVTAAP [FhuA TonB box peptide] bind?
**A.** Result: binds
